Measured values published in article PMC8567388.
pKd: −log10 of the molar value.

Tests used:
[1] = molecular target: Peptide ligand: Stargazin (TAMRA-NNG-…); experiment: fluorescence polarisation
[2] = molecular target: Peptide ligand: GluN2B (TAMRA-NNG-…); experiment: fluorescence polarisation

Row | pKd [1] | pKd [2] | Substance
1 | 4.56 | 4.91 | PSD-95 PDZ1 6xHis (domain or fragment)
2 | – | 5.72 | PSD-95 PDZ1-2 6xHis (domain or fragment)
